PMC9804225

Assays:
[1] = biological target: recombinantly expressed GFP Nb; assay: BLI; Nbs immobilised by their C-terminal His-tag on Ni-NTA biosensor tips; untagged GFP as analyte at 1 nM to 100 nM
[2] = biological target: synthetic GFP Nb_(1–123)‐linker‐PA (5), folded; assay: as above

Kd [1]: 1.12 nM | Kd [2]: 1.11 nM
Substance: untagged GFP (from UniProt P42212 1-238) (natural protein)
